Measurements: the supplement of paper PMC12042874
± gives the uncertainty stated by the source.

test: amyloid nucleation score (Sup35N fusion, yeast selection) (log enrichment); library NNK3; higher = more nucleation; inactive = no reads after selection
Procedure, shortened: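 The nucleation score is a DiMSum log enrichment of output over input reads, centred on the mode score of non-aggregating sequences. Sequences under 100 input reads were excluded, and reads came from Illumina sequencing of plasmid inserts. Psi-negative yeast expressing Sup35N fused to peptides of 20 random codons were induced with 100 μM copper sulfate for 24 hours and grown 7 days at 30°C on medium lacking adenine and uracil. Random libraries had three technical output replicates.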

| Substance | amyloid nucleation score |
| --- | --- |
| FWLRAVSLSWLMIEKKYMLR | inactive |
| FWMILMDMLFMRLGSL | inactive |
| FWMRFKHDW | 1.29 ± 0.16 |
| FWSSFAMRAYSVIWYTLSTC | inactive |
| FWYFYSKEFTRQDLVDLNVM | inactive |
| FYCLHSMLKMGEDVRAMNLD | inactive |
| FYDAWRIFLSYFRLSLLTNV | inactive |
| FYFYSVCYYGRWIKKPCHLR | inactive |
| FYGECKSVSGNCLTMNGRYT | -0.561 ± 0.59 |
| FYIKVVNPCIPYT | inactive |
| FYKVYSVRLEHFCKCGIECN | inactive |
| FYNRPKWLFVLGPENILCDS | inactive |
| FYRSFSPSYNLYMYGIYDR | 2.77 ± 0.067 |
| FYSCKSTAGCSTTIEGARNY | inactive |
| FYSTAMCGED | inactive |
| FYTWLPCVYSN | -0.335 ± 1.7 |
| FYYDRVTLRGNTNLGDLMHG | 1.69 ± 0.076 |
| FYYIVIFSNHWPSCILCRGR | 0.792 ± 0.28 |
| FYYSWSVFCICMYR | inactive |
| GAGCNVVAAATARSRDGDWS | 0.212 ± 0.93 |
| GAHWNASSHICGRKD | inactive |
| GALAKFLLISKTMRVDMRMV | inactive |
| GAMWLSCT | inactive |

| Substance | amyloid nucleation score |
| --- | --- |
| GANSGFRGIDGLLPALDKQE | inactive |
| GASLYWIP | 0.234 ± 0.88 |
| GCCFLVILWMKYDCYLGDQV | inactive |
| GCFDVPNCVSFQSFRACGKG | inactive |
| GCFSSSESTIWGGAVDAKVS | inactive |
| GCHLVSCRRTGAL | inactive |
| GCKLIEWDVLIVDPMPARGR | inactive |
| GCNHC | inactive |
| GCREICFNLCFKRSLTCALL | inactive |
| GCRNVVCVVDGFSVM | inactive |
| GCSWLFSSLCFLGDNALGST | inactive |
| GCYEGMLVIFLVFWLVVVYP | inactive |
| GDTAPNSSTISLTVFFPLFA | 0.697 ± 0.21 |
| GEDVGPCMTESCRYAYLRYT | inactive |
| GELPLRVKVKSFHTDTSLRT | inactive |
| GEMVFGVVWIVELETFCIPI | inactive |
| GFAYESQAA | inactive |
| GFFELYS | inactive |
| GFFFSLFYWNHFRGMTRQRF | 0.973 ± 0.2 |
| GFGESGNR | inactive |
| GFGQATTCLSLNSACF | 0.544 ± 0.18 |
| GFHLGFHGWNCKLAK | -0.349 ± 0.49 |
| GFLESCENLVQFKRARWSNI | inactive |

| Substance | amyloid nucleation score |
| --- | --- |
| GFNVTWFEIYGGLEDSWWFC | inactive |
| GFRRRSMDALSVTVDSVVAP | inactive |
| GFRYALHSLIDR | inactive |
| GFRYSLLSSRSFYWHRSPSM | inactive |
| GFSYVVNYVFFTDVKNTAAL | 2.17 ± 0.076 |
| GFVNSVRFDLIECDVLKRSN | inactive |
| GGARL | inactive |
| GGCGGVKHAHYNTIEY | inactive |
| GGCGMDV | inactive |
| GGLHSGVGKMAYELNMYS | inactive |
| GGLYKYKNRTRLFMSWRVSR | inactive |
| GGNGVPRVWSVFIRRVWNSV | inactive |
| GGNLFSSVS | inactive |
| GGNVCRGVKIIVMWAMIFVM | inactive |
| GGSEGQSVPAC | -0.241 ± 1.5 |
| GGSSYTYHNSVDLLDWFCYV | 1.23 ± 0.11 |
| GGSVWWY | inactive |
| GGTAHNIGCVSRLVMPARGI | inactive |
| GGWSARYTNCNLYYTEASGP | 0.857 ± 0.18 |
| GHIKWGNCSSYVSGFKLTCG | inactive |
| GHWTLDYEFKYPYGQQYHVP | inactive |
| GIASFECGDSCKSVN | inactive |
| GIFCGLTGLIDGMRTQHSEL | 0.816 ± 0.12 |

| Substance | amyloid nucleation score |
| --- | --- |
| GIGRDCNVSGALCQRAVANV | inactive |
| GIIMPKSRLVPTWTQSRSCC | inactive |
| GILCCAL | inactive |
| GIMVSWIVGFMLCSILRMGD | inactive |
| GINHNGRVECNRFKMNY | inactive |
| GISRYFYSMCETWMNCHSGV | 0.793 ± 0.28 |
| GIVRSVCYVNGCVLDHEVGI | inactive |
| GIVTLSA | inactive |
| GIYGRTGHSYVF | inactive |
| GIYRYVQGWHDAPHGGNCTE | inactive |
| GKDKLEGKEGGVSCDGNLRP | inactive |
| GKDSGDCTRIRLGV | 1.2 ± 0.14 |
| GKGCYLVVCDYTTCTKFLNM | inactive |
| GKKMKEGCSSNISIVELSRN | inactive |
| GKTNNLLSFFSKTPLTFSCL | inactive |
| GKYCLNDSCPFHY | inactive |
| GLCKS | inactive |
| GLDRI | inactive |
| GLDTAR | inactive |
| GLERLMDPLGNHRVRGDRVG | inactive |
| GLHLYEFRGRCNTSVDSQTK | inactive |
| GLKLCCV | inactive |
| GLKNV | -0.431 ± 0.8 |

| Substance | amyloid nucleation score |
| --- | --- |
| GLLLVIFNGFGFNDYEEFGM | inactive |
| GLMLYTSMVGSYDDWPD | inactive |
| GLNMPLSFSPKRRHFVREWK | inactive |
| GLSHESTYKEEFESSATSGV | inactive |
| GLVVVT | inactive |
| GLVVWKNGINWLSEGVTIAR | 0.567 ± 0.25 |
| GLVWTW | -0.01 ± 0.48 |
| GLVYNNIWISLYFNGATVES | 2.08 ± 0.06 |
| GMAEFALQWIRMIGRL | 0.214 ± 0.45 |
| GMAVVLSLAPAGRKRTTTNV | inactive |
| GMCWVDFVNNTASCVWFPLC | inactive |
| GMDCNKIRLASSWVYYLTSE | inactive |
| GMLGLMAGKNLEGADRL | inactive |
| GMRSLDMRWAGVMYVHRRRL | inactive |
| GMRSSLNIDAFGSGAELMHW | inactive |
| GMSSLIGIDMNLSEKFGYPY | inactive |
| GMVWFRFLKYAKC | -1.54 ± 2.4 |
| GNCTSVLDPSELVVYHCEGS | inactive |
| GNFESVSDRKFSISFHCWHS | inactive |
| GNIAELVSGREVYNYVN | -0.075 ± 0.9 |
| GNIEGVRNVVALTMHVVNWV | 2.2 ± 0.091 |
| GNITTRLHFFTNGFRPSFHG | inactive |
| GNNCPRVSIFNREAKIDNVL | inactive |

| Substance | amyloid nucleation score |
| --- | --- |
| GNTFLWCGRVDSYSTHSYLC | inactive |
| GNVQFCRFFFDMSSLHDIMT | inactive |
| GNVSCHFILGQRVHFPSCDF | 0.809 ± 0.29 |
| GPFVSFYFVFTRFNQTSLGF | 1.57 ± 0.066 |
| GPGNMAMNVRAVKSGYHIAG | inactive |
| GPIINVIS | inactive |
| GPSAGGFCQLRGVDVDV | inactive |
| GPSWVTHESRKCTCQARDKV | inactive |
| GPYHELCNHRL | inactive |
| GQFANPVK | inactive |
| GQPTICKDGYSMLLNEFSRS | inactive |
| GQVYMSVRV | inactive |
| GQWDYLLTQYKNIK | -1.01 ± 1.1 |
| GRALNWTG | inactive |
| GRFKSGSLPFRRSGE | inactive |
| GRGSKLVCVR | 2.63 ± 0.071 |
| GRGYSSSTLWVLGWFD | inactive |
| GRISAKSVVTSWRGVGPYSV | inactive |
| GRIYFYLVKTDPVQERTQLF | inactive |
| GRKVCLSRPTRFNSFLWMVY | inactive |
| GRLINYSILKMVTVWFYLL | inactive |
| GRLIPREGT | inactive |
| GRNKSLYGIGLVRYVMLVSE | inactive |

| Substance | amyloid nucleation score |
| --- | --- |
| GRRMWCCREAHRSNDQV | 1.28 ± 0.11 |
| GRRYRKFDNTGGNSPK | inactive |
| GRSGYH | inactive |
| GRSSMFRINNQMLCWVSIPC | inactive |
| GRTYSGYTGWRGVLGHDLVM | inactive |
| GRYHDGAAQWGRHNVFRSSA | inactive |
| GSALCHCLCNMEVMSYFVAF | inactive |
| GSCFVKEVSGGHMLGS | inactive |
| GSDEEESLNCSYASSLTSVC | inactive |
| GSFGPIFQWNTIGALGFFG | 2.19 ± 0.059 |
| GSGGAMELVRFYYLNVAVCV | inactive |
| GSKLICIVWLFLLFG | inactive |
| GSLRNPVSGRLENVGGRAWG | inactive |
| GSMSLIYYGLRRKVMGYVLS | 0.316 ± 0.7 |
| GSMTFNYTLEGLNYHNDTKE | inactive |
| GSMVVEFMYYHPTPTRGAWA | 0.8 ± 0.17 |
| GSPFYIFRVINLYT | 2.93 ± 0.049 |
| GSPQVSAAGQF | inactive |
| GSRDYCVVNSIESDNCFQGW | inactive |
| GSRRWFEFFVPWLQLD | inactive |
| GSSGENFVNYSKVTKSDLLY | inactive |
